Reference: publication PMC8850972, “Unraveling the Glucosylation of Astringency Compounds of Horse Chestnut via Integrative Sensory Evaluation, Flavonoid Metabolism, Differential Transcriptome, and Phylogenetic Analysis” (Frontiers in Plant Science, 2022)

B1: AcUGT1 (Aesculus chinensis) (protein)
chain: MQKAELVFIPLPGVSHLISTVEIAKLLVGRDDRLSITVLIIKFPNFDSNVIAAYTRSLDRIKFIDLPNHFSDSDNSRTLFFSIIESQKPHVKEAVTKLTQSESLPAADSPRLAGFVLDMFCTCMIDVANDFGVPSYIFFTSGAAFLGLMFHAQFLHDELGKSTTDFKDSESDAELVVPSLANPVPARVLPSAMLSKEWSMHLNELSRRFRTTKGIMVNTFAELESYAVNSLSDGSKTQIPPLYPVGPILNLNGDNHVPERKAEIMEWLDDQPPSSVVFLCFGSMGSFDGDQLKEIACALEQSGHRFLWSVRQSPPKDKDKDKIVIPNDCENLTDVLPEGFLDRTVGIGKVIGWAPQVAVLGHPAVGGFVSHCGWNSTLESIWFGVPIATWPIYAEQQLNAFEMVRELGLAVEIKMDYRKDFITESVVELVTAEEIERGIRRLMESDNNDIRKKVKEMSEKSRRALMDGGSSFSSLGRFIGDVIDNIS
notes: cloned from mixed leaf, flower and seed cDNA into pMAL-c2x (MBP-fusion vector), expressed in Escherichia coli
B2: AcUGT26 (Aesculus chinensis) (protein)
chain: MSSSRSQSHHVILFPFMSKGHTIPLLHLAQLLLRRPRVAVTVFTTPANRPFTSNFLRNTAASIIDLPFPENVPEIAPGIESTDKLPSMSLFVPFARATKLMQPDFERAVEAMPRVSFLVSDGFLWWTLESATKFGFPRFVFYGMNNYSGCVCRAVVENRLLYGRKSDDELVTVTGFPWIKVTRNDFEPTFTDPEPKGPMFDLVIDQVIATSNSYGLIVNSFYELESLFVEHKNREAKPKVWCVGPLCLADPLRVQDQLPPHQKPTWIQWLDQKLEQGRSVLYVAFGTQAEISEEQVKEISSGLEESKVNFLWVIRKKESELGDGFEKRVKERGLIVREWVDQREMLLHQSIHGFLSHCGWNSVMESICAGVPILAWPMMAEQPLNARMVVEEIKVGLRVETCNGSVRGFVKKEGLEKMVKELMEGEKGKEVRKKAKEYAEMARKAMDEDNGSSCRTLDMLMAEISNSKSQDKMEV
notes: as for B1

Columns and labels:
[1] = substrate: O=c1c(O)c(-c2ccc(O)c(O)c2)oc2cc(O)cc(O)c12; assay: UPLC-MS/MS glucosyltransferase kinetics; type: biochemical, Aesculus chinensis; conditions: UDP-glucose 2 mM, pH 7.0 Tris-HCl, 10 mM DTT, 37 °C
[2] = substrate: O=c1c(O)c(-c2ccc(O)cc2)oc2cc(O)cc(O)c12; assay: UPLC-MS/MS glucosyltransferase kinetics; type: biochemical, Aesculus chinensis; conditions: UDP-glucose 2 mM, pH 7.0 Tris-HCl, 10 mM DTT, 37 °C

Protein | Km [1] | kcat [1] | Km [2]
B1 | 1.02 ± 0.23 µM | 5.34±0.01(10^-3) S^-1 | 22.62 µM
B2 | 2.23 ± 0.06 µM | 0.65±0.02(10^-3) S^-1 | –
